Changes are numbered by the printed parent chain.
B1: variant 6-63 (Fc fusion)
VHH: EVQLVESGGGLVQPGGSLRLSCAASGQTFNMGWFRQAPGKEREFVAAIGSGGSTSYADSVKGRFTISADNSKNTAYLQMNSLKPEDTAVYYCWRLGNDYFDYWGQGTLVTVSS
notes: also called VHH nanobody 6-63
B2: variant 6-76 (Fc fusion)
VHH: EVQLVESGGGLVQPGGSLRLSCAASGLAFDFDGMGWFRQAPGKEREGVAAINSGGSTYYADSVKGRFTISADNSKNTAYLQMNSLKPEDTAVYYCARFFRAHDYWGQGTLVTVSS
B3: variant 6-85 (Fc fusion)
VHH: EVQLVESGGGLVQPGGSLRLSCAASGGTFSVFAMGWFRQAPGKEREFVSAINWSGGSLLYADSVKGRFTISADNSKNTAYLQMNSLKPEDTAVYYCALFGDFDYWGQGTLVTVSS
B4: variant 6-78 (Fc fusion)
VHH: EVQLVESGGGLVQPGGSLRLSCAASGRTYDAMGWFRQAPGKEREFVASVTSGGYTHYADSVKGRFTISADNSKNTAYLQMNSLKPEDTAVYYCAKFGRKIVGATELDYWGQGTLVTVSS
B5: variant 6-3 (Fc fusion)
VHH: EVQLVESGGGLVQPGGSLRLSCAASGFTFSPSWMGWFRQAPGKEREFVATINEYGGRNYADSVKGRFTISADNSKNTAYLQMNSLKPEDTAVYYCARVDRDFDYWGQGTLVTVSS
B6: variant 6-26 (Fc fusion)
VHH: B5 VHH with F27D, P31T, E53T, Y54G, R57T, D99T, R100T, D101S
B7: variant 5-20 (Fc fusion)
VHH: EVQLVESGGGLVQPGGSLRLSCAASGRTIVPYTMGWFRQAPGKERELVAAISPSAFTEYADSVKGRFTISADNSKNTAYLQMNSLKPEDTAVYYCAARRWGYDWGQGTLVTVSS
B8: variant 6-55 (Fc fusion)
VHH: EVQLVESGGGLVQPGGSLRLSCAASGFTMSSSWMGWFRQAPGKEREFVARITSGGSTGYADSVKGRFTISADNSKNTAYLQMNSLKPEDTAVYYCASVDGYFDYWGQGTLVTVSS
B9: variant 5-1 (Fc fusion)
VHH: EVQLVESGGGLVQPGGSLRLSCAASGGTFSSIGMGWFRQAPGKEREFVAAISWDGGATAYADSVKGRFTISADNSKNTAYLQMNSLKPEDTAVYYCAKEDVGKPFDWGQGTLVTVSS
B10: variant 5-34 (Fc fusion)
VHH: EVQLVESGGGLVQPGGSLRLSCAASGRTFSRYIMGWFRQAPGKEREFVAAISWSGGDNTYYADSVKGRFTISADNSKNTAYLQMNSLKPEDTAVYYCAAYRIVVGGTSPGDWRWGQGTLVTVSS
B11: variant 6-20 (Fc fusion)
VHH: EVQLVESGGGLVQPGGSLRLSCAASGSTLPYHAMGWFRQAPGKEREFVAAITWNGASTSYADSVKGRFTISADNSKNTAYLQMNSLKPEDTAVYYCARDRYYDTSASYFESETWGQGTLVTVSS
B12: variant 6-73 (Fc fusion)
VHH: EVQLVESGGGLVQPGGSLRLSCAASGHTFSGYAMGWFRQAPGKEREFVAVITREGSTYYADSVKGRFTISADNSKNTAYLQMNSLKPEDTAVYYCARLGGEGFDYWGQGTLVTVSS
B13: variant 6-60 (Fc fusion)
VHH: EVQLVESGGGLVQPGGSLRLSCAASGDTYGSYWMGWFRQAPGKEREFVATISQSGAATAYADSVKGRFTISADNSKNTAYLQMNSLKPEDTAVYYCAGLLRYSGTYYDAFDVWGQGTLVTVSS
B14: SARS-CoV-2 variant 1-32 (antibody, V domains shown)
VH: EVQLLESGGGLVQPGGSLRLSCAASGFTFSSYAMYWVRQAPGKGLEWVSAISGSGGSTFYADSVKGRFTISRDNSKNTLYLQMNSLRAEDTAVYYCTRPPYGDYGDYWGQGTLVTVSS
VL: QSALTQPASVSGSPGQSITISCTGTSSDVGGYNLVSWYQQHPGKAPKLMIYEGNKRPSGVSNRFSGSKSGNTASLTISGLQAEDEADYYCCSYAGSSTFPVVFGGGTKLTVL
B15: SARS-CoV-2 variant 1-49 (antibody, V domains shown)
VH: EVQLLESGGGLVQPGGSLRLSCAASGFTFSSYAMYWVRQAPGKGLEWVSAISGSAGSTYYADSVKGRFTISRDNSKNTLYLQMNSLRAEDTAVYYCARDTNDFWGQGTLVTVSS
VL: QSALTQPASVSGSPGQSITISCTGTSSDIGSYNLVSWYQQHPGKAPKLMIYEGTKRPSGVSNRFSGSKSGNTASLTISGLQAEDEADYYCCSYAGSRTYVFGGGTKLTVL
B16: SARS-CoV-2 variant 1-4 (antibody, V domains shown)
VH: EVQLLESGGGLVQPGGSLRLSCAASGFTFSSQAMSWVRQAPGKGLEWVSAISGSGGGTYYADSVKGRFTISRDNSKNTLYLQMNSLRAEDTAVYYCAKDRRFGEFDPWGQGTLVTVSS
VL: QSALTQPASVSGSPGQSITISCTGTSSDVGTYNLVSWYQQHPGKAPKLMIYEGSQRPSGVSNRFSGSKSGNTASLTISGLQAEDEADYYCCSYAGSSSFVVFGGGTKLTVL
B17: SARS-CoV-2 variant 1-28 (antibody, V domains shown)
VH: EVQLLESGGGLVQPGGSLRLSCAASGFTFSSYGMSWVRQAPGKGLEWVSAISGSGGGTYYADSVKGRFTISRDNSKNTLYLQMNSLRAEDTAVYYCASSSSWQFDYWGQGTLVTVSS
VL: B16 VL with D28G, T31S, S98T, F99H, V100Y
B18: SARS-CoV-2 variant 1-3 (antibody, V domains shown)
VH: B16 VH
VL: B16 VL with T25I, T31S, S54T, Q55K
B19: SARS-CoV-2 variant 1-31 (antibody, V domains shown)
VH: B14 VH with Y35N
VL: B16 VL with T31K, S97R, S98T, F99P
B20: SARS-CoV-2 variant 1-30 (antibody, V domains shown)
VH: B14 VH with Y35T
VL: B16 VL with S27R, T31S, S54T, Q55K, S97R, S98T, F99P
B21: SARS-CoV-2 variant 1-5 (antibody, V domains shown)
VH: B16 VH
VL: B16 VL with D28G, T31S, G53A, Q55K, S97Y, S98T, V100A
B22: variant 5-37 (Fc fusion)
VHH: EVQLVESGGGLVQPGGSLRLSCAASGSTFSINAMGWFRQAPGKEREFVGGISRSGATTNYADSVKGRFTISADNSKNTAYLQMNSLKPEDTAVYYCAADGVPEYSDYASGPVWGQGTLVTVSS

Target: T1, SARS-CoV-2 spike on live SARS-CoV-2 virus (SARS-CoV-2, UniProt P0DTC2 14-1273)
Assay: cell-based or functional assay

Row | Binder | PRNT90
1 | B1 | 3.9 ng/mL
2 | B2 | 3.9 ng/mL
3 | B3 | 62.5 ng/mL
4 | B4 | 250 ng/mL
5 | B5 | < 0.98 ng/mL
6 | B6 | 62.5 ng/mL
7 | B7 | 3.9 ng/mL
8 | B8 | 62.5 ng/mL
9 | B9 | 15.6 ng/mL
10 | B10 | 15.6 ng/mL
11 | B11 | 15.6 ng/mL
12 | B12 | 250 ng/mL
13 | B13 | < 0.98 ng/mL

Target: T2, COVID S1 RBM Fc fusion (Antigen 2) (SARS-CoV-2, UniProt P0DTC2 437-508)
Assay: phage ELISA

Row | Binder | ELISA fold over background
14 | B14 | 1.1 fold
15 | B15 | 0.8 fold
16 | B16 | 1.1 fold
17 | B17 | 1.2 fold
18 | B18 | 1.5 fold
19 | B19 | 1.2 fold
20 | B20 | 1.4 fold
21 | B21 | 1.4 fold

Target: T3, S1 Fc fusion protein (SARS-CoV-2, UniProt P0DTC2 14-685)
Assay: phage ELISA

Row | Binder | ELISA fold over background
22 | B14 | 4 fold
23 | B15 | 0.8 fold
24 | B16 | 0.9 fold
25 | B17 | 1.1 fold
26 | B18 | 1.5 fold
27 | B19 | 15.7 fold
28 | B20 | 5.6 fold
29 | B21 | 1.2 fold

Target: SARS-CoV-2 spike on VSV-pseudotype SARS-CoV-2 (SARS-CoV-2, UniProt P0DTC2 14-1273)
Assay: cell-based or functional assay

Row | Binder | NC50
30 | B1 | 0.06 µg/mL
31 | B2 | 1.08 µg/mL
32 | B3 | 0.84 µg/mL
33 | B4 | 8.26 µg/mL
34 | B5 | 0.06 µg/mL
35 | B6 | 2.97 µg/mL
36 | B7 | 0.27 µg/mL
37 | B8 | 0.21 µg/mL
38 | B9 | 0.1 µg/mL
39 | B10 | 0.54 µg/mL
40 | B11 | 5.03 µg/mL
41 | B12 | 1.46 µg/mL
42 | B13 | 0.15 µg/mL

Target: T1, SARS-CoV-2 spike on live SARS-CoV-2 …
Assay: cell-based or functional assay
Remark: another data set of the same source

Row | Binder | EC50
43 | B1 | 0.06 µg/mL
44 | B2 | 1.08 µg/mL
45 | B3 | 0.84 µg/mL
46 | B4 | 8.26 µg/mL
47 | B5 | 0.06 µg/mL
48 | B6 | 2.97 µg/mL
49 | B7 | 0.27 µg/mL
50 | B8 | 0.21 µg/mL
51 | B9 | 0.1 µg/mL
52 | B10 | 0.54 µg/mL
53 | B11 | 5.03 µg/mL
54 | B12 | 1.46 µg/mL
55 | B13 | 0.15 µg/mL

Target: T2, COVID S1 RBM Fc fusion (Antigen 2)
Assay: phage ELISA
Remark: another data set of the same source

Row | Binder | ELISA fold over background
56 | B14 | 1.1 fold
57 | B15 | 0.8 fold
58 | B16 | 1.1 fold
59 | B17 | 1.2 fold
60 | B18 | 1.5 fold
61 | B19 | 1.2 fold
62 | B20 | 1.4 fold
63 | B21 | 1.4 fold

Target: T3, S1 Fc fusion protein
Assay: phage ELISA
Remark: another data set of the same source

Row | Binder | ELISA fold over background
64 | B14 | 4 fold
65 | B15 | 0.8 fold
66 | B16 | 0.9 fold
67 | B17 | 1.1 fold
68 | B18 | 1.5 fold
69 | B19 | 15.7 fold
70 | B20 | 5.6 fold
71 | B21 | 1.2 fold

Target: T1, SARS-CoV-2 spike on live SARS-CoV-2 …
Assay: cell-based or functional assay
Remark: another data set of the same source

Row | Binder | EC80
72 | B1 | 0.0579 µg/mL
73 | B2 | 0.426 µg/mL
74 | B22 | 12.4 µg/mL
75 | B3 | 1.06 µg/mL
76 | B4 | 13.8 µg/mL
77 | B5 | 0.115 µg/mL
78 | B6 | 3.61 µg/mL
79 | B7 | 0.376 µg/mL
80 | B8 | 0.445 µg/mL
81 | B9 | 0.811 µg/mL
82 | B10 | 0.57 µg/mL
83 | B11 | 2.31 µg/mL
84 | B12 | 2.02 µg/mL
85 | B13 | 0.237 µg/mL
